In patent publication US20250262210A1 (TRUSTEES OF COLUMBIA UNIVERSITY IN THE CITY OF NEW YORK, published 2025):

Columns and labels:
Experiment in all cases: IP/MS, LZTR1 R810W-FLAG, U87
CDK5RAP2 = CDK5RAP2 (human, UniProt Q96SN8 1-1893, limits assumed)
Outline: (§1)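 Gel slices were reduced with 5 mM DTT, alkylated with 11 mM IAA and digested overnight at 37° C. with trypsin. Peptides were analysed on an Orbitrap Fusion Tribrid by LC-MS/MS.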

PARP14 = PARP14 (human, UniProt Q460N5 1-1801, limits assumed)
Outline: as §1

MOCOS = biological target: T1, MOCOS (human, UniProt Q96EN8 1-888)
T1 sequence (looked up): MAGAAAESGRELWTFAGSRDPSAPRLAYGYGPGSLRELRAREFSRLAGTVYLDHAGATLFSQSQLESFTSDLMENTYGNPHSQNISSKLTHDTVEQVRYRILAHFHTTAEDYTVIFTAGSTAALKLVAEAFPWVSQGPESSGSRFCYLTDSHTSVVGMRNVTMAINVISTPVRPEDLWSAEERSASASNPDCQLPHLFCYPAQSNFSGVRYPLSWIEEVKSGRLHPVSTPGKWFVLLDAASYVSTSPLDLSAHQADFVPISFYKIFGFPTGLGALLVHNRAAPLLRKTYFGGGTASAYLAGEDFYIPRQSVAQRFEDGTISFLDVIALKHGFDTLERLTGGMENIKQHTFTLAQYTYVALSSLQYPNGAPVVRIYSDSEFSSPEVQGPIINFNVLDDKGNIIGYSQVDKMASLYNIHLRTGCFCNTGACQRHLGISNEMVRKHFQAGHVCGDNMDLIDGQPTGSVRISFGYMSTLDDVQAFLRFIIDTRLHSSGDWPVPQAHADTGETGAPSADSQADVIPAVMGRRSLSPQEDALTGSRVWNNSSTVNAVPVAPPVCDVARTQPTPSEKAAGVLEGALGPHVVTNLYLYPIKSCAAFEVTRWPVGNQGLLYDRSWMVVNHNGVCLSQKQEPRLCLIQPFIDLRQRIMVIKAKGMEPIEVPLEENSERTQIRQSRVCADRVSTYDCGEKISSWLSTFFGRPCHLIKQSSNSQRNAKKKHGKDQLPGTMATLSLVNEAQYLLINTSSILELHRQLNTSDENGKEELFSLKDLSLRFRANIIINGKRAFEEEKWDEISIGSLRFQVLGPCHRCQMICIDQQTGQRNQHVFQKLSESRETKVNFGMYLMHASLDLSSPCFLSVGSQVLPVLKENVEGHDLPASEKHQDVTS
Outline: as §1

HECTD3 = biological target: T2, HECTD3 (human, UniProt Q5T447 2-861, limits assumed)
T2 sequence (looked up): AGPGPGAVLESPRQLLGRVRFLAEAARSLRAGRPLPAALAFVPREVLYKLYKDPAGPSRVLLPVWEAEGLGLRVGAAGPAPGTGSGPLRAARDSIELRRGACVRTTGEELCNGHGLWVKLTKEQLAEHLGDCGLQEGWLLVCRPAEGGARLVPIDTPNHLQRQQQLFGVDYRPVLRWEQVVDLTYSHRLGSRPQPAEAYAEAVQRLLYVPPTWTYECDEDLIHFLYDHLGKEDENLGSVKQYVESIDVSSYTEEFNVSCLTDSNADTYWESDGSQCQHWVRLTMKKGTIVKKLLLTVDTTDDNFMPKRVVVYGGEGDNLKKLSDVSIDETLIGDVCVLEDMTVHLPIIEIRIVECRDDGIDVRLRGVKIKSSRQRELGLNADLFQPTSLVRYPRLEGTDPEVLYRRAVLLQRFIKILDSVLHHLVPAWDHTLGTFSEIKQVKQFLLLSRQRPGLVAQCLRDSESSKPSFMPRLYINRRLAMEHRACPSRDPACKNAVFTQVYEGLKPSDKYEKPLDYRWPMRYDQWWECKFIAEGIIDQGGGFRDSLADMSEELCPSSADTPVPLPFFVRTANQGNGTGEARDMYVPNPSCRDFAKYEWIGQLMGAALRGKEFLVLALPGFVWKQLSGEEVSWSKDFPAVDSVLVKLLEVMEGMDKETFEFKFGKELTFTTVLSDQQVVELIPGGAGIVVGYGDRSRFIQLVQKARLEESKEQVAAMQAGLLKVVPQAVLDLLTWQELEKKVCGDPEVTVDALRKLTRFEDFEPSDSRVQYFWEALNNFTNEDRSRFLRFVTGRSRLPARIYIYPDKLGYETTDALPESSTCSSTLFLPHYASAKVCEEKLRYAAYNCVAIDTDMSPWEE
Outline: as §1

INTS1 = INTS1 (human, UniProt Q8N201 1-2190)
Outline: as §1

Measured: binding result

Sequence of INTS1 (Q8N201 whole entry): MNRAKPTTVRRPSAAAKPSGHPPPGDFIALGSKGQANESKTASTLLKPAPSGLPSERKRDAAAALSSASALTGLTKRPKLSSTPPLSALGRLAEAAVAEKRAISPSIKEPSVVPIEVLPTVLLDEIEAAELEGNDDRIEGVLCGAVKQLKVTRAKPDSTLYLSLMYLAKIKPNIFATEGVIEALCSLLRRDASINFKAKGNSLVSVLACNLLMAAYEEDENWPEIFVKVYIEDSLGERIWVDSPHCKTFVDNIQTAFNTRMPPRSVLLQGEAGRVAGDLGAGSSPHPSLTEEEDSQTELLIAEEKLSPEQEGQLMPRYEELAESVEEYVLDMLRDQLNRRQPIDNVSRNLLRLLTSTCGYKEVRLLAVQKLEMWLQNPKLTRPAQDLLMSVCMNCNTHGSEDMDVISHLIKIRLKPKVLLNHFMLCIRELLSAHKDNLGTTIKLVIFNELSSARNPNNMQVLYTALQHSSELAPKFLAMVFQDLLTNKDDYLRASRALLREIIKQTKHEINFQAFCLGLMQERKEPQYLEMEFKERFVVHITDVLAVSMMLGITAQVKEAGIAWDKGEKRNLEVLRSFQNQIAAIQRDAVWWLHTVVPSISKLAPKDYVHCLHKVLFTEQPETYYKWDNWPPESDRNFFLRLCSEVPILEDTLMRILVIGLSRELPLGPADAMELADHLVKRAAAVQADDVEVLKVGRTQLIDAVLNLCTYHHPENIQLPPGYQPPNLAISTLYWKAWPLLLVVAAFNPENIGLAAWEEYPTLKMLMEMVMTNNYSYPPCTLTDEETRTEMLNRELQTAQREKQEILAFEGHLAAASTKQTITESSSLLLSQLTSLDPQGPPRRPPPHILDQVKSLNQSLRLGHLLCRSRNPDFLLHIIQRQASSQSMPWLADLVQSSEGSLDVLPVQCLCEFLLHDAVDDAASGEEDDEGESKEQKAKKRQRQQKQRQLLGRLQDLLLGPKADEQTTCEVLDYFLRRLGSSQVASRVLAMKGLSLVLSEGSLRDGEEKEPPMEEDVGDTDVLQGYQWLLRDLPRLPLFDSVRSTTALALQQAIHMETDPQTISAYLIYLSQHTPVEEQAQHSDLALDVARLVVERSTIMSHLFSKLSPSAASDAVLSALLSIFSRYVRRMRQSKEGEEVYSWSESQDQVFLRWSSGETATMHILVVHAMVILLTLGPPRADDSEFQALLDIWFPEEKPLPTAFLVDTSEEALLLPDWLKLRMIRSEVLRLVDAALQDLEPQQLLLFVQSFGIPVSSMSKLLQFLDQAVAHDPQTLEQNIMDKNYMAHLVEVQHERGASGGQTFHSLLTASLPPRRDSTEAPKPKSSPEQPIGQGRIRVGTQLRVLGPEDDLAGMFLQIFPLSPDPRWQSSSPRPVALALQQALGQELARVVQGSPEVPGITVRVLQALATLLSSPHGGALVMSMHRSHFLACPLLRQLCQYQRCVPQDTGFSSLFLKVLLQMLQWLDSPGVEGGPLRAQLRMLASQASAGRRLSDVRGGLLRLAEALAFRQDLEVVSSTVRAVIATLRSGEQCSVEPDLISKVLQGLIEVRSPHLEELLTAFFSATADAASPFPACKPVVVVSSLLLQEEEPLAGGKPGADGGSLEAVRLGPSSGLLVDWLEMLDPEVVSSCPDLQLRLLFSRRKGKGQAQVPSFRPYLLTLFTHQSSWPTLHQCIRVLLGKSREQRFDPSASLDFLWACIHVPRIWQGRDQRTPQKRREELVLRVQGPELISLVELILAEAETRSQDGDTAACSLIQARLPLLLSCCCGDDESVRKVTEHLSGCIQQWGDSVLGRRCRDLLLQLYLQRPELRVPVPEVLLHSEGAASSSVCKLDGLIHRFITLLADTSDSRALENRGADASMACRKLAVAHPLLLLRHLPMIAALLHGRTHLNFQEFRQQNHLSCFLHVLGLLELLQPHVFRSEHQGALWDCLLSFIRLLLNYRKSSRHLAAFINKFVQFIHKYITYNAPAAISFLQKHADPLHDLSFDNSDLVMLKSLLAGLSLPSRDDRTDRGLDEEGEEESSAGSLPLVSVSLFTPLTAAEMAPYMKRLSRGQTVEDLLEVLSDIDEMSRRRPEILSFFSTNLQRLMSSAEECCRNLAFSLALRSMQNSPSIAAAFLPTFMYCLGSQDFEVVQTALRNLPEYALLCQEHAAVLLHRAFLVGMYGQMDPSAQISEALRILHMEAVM
Sequence of CDK5RAP2 (Q96SN8 whole entry, the tested form may be a part): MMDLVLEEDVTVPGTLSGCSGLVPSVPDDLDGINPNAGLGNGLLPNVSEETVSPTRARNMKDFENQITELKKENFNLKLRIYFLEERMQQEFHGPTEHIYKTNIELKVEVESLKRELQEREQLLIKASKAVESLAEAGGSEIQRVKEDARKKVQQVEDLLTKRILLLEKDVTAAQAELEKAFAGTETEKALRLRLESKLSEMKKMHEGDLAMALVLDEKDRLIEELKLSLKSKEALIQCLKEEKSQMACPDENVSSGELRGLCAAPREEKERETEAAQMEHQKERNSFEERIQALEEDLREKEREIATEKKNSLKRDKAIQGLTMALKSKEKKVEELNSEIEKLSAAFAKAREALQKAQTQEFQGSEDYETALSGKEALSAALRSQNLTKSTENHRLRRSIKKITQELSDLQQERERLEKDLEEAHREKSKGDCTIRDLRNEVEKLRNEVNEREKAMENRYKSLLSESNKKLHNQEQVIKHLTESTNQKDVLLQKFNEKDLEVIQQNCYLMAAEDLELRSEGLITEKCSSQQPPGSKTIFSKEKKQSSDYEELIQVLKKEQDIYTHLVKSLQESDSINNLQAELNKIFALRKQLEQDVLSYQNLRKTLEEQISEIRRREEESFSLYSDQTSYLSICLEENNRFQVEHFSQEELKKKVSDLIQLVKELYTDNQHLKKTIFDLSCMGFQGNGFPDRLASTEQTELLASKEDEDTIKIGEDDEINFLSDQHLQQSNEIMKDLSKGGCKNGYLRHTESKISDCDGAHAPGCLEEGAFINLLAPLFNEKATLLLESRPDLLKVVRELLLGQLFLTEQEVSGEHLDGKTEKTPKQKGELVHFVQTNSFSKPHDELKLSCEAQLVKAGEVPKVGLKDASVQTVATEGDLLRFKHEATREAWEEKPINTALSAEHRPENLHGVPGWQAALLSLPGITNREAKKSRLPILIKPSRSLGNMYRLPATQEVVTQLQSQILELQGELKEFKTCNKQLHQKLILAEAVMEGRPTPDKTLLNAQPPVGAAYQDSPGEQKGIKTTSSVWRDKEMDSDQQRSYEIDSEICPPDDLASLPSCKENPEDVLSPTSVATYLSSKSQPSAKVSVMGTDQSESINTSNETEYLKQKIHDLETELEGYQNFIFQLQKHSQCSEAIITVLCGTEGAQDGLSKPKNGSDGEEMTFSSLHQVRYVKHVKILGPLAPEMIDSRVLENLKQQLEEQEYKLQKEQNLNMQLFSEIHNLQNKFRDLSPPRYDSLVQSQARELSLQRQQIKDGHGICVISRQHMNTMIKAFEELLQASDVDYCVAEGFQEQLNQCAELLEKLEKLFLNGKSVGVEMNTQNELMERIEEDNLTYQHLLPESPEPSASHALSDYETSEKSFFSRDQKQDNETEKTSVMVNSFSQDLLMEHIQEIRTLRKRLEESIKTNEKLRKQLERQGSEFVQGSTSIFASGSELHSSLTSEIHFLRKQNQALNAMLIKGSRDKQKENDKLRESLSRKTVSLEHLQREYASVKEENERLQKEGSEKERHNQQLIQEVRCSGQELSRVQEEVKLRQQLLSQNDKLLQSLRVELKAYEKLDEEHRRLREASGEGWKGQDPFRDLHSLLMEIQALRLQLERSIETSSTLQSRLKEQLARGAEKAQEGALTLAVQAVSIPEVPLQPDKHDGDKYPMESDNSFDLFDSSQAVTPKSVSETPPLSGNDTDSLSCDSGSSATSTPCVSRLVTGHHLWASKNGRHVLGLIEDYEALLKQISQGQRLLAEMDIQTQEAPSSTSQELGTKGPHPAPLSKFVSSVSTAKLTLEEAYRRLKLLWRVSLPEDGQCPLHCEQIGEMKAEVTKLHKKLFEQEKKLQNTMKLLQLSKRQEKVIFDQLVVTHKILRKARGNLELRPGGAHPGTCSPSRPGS

B1: LZTR1 R810W-FLAG (other, human, UniProt Q8N653 1-840, looked up)
chain: MAGPGSTGGQIGAAALAGGARSKVAPSVDFDHSCSDSVEYLTLNFGPFETVHRWRRLPPCDEFVGARRSKHTVVAYKDAIYVFGGDNGKTMLNDLLRFDVKDCSWCRAFTTGTPPAPRYHHSAVVYGSSMFVFGGYTGDIYSNSNLKNKNDLFEYKFATGQWTEWKIEGRLPVARSAHGATVYSDKLWIFAGYDGNARLNDMWTIGLQDRELTCWEEVAQSGEIPPSCCNFPVAVCRDKMFVFSGQSGAKITNNLFQFEFKDKTWTRIPTEHLLRGSPPPPQRRYGHTMVAFDRHLYVFGGAADNTLPNELHCYDVDFQTWEVVQPSSDSEVGGAEVPERACASEEVPTLTYEERVGFKKSRDVFGLDFGTTSAKQPTQPASELPSGRLFHAAAVISDAMYIFGGTVDNNIRSGEMYRFQFSCYPKCTLHEDYGRLWESRQFCDVEFVLGEKEECVQGHVAIVTARSRWLRRKITQARERLAQKLEQEAAPVPREAPGVAAGGARPPLLHVAIREAEARPFEVLMQFLYTDKIKYPRKGHVEDVLLIMDVYKLALSFQLCRLEQLCRQYIEASVDLQNVLVVCESAARLQLSQLKEHCLNFVVKESHFNQVIMMKEFERLSSPLIVEIVRRKQQPPPRTPLDQPVDIGTSLIQDMKAYLEGAGAEFCDITLLLDGHPRPAHKAILAARSSYFEAMFRSFMPEDGQVNISIGEMVPSRQAFESMLRYIYYGEVNMPPEDSLYLFAAPYYYGFYNNRLQAYCKQNLEMNVTVQNVLQILEAADKTQALDMKRHCLHIIVHQFTKVSKLPTLWSLSQQLLLDIIDSLASHISDKQCAELGADI
notes: Stably expressed in U87 cells by lentivirus; also called LZTR1-FLAG-R810W; LZTR1 RW; not shown: FLAG tag
binds: CDK5RAP2 | PARP14 | MOCOS | HECTD3 | INTS1
